This note sets out measurements from paper PMC7199863 (The Journal of Cell Biology, 2020).

The assay has as its target T1, FLAG-tagged fragment of CC-afadin (coiled-coil region of afadin, aa 1386-1595) (mouse).
T1 chain: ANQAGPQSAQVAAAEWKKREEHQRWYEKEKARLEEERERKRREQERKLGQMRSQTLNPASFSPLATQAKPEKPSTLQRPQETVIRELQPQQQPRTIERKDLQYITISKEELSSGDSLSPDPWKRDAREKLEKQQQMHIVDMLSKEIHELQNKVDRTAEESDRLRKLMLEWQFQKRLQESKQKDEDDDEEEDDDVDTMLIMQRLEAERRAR
Kind of assay: sucrose density gradient centrifugation.

B1: αE-catenin fragment MIII-C (aa 509-906) (domain or fragment)
chain: DDFLAVSENHILEDVNKCVIALQEKDVDGLDRTAGAIRGRAARVIHVVTSEMDNYEPGVYTEKVLEATKLLSNTVMPRFTEQVEAAVEALSSDPAQPMDENEFIDASRLVYDGIRDIRKAVLMIRTPEELDDSDFETEDFDVRSRTSVQTEDDQLIAGQSARAIMAQLPQEQKAKIAEQVASFQEEKSKLDAEVSKWDDSGNDIIVLAKQMCMIMMEMTDFTRGKGPLKNTSDVISAAKKIAEAGSRMDKLGRTIADHCPDSACKQDLLAYLQRIALYCHQLNICSKVKAEVQNLGGELVVSGVDSAMSLIQAAKNLMNAVVQTVKASYVASTKYQKSQGMASLNLPAVSWKMKAPEKKPLVKREKQDETQTKIKRASQKKHVNPVQALSEFKAMDSI
Take B1: the “stoichiometry N” value was 1.

For orientation: stoichiometry N means the number of molecules, sites or subunits per partner or assembly.
